# The supplement of paper PMC9170038
# Tested on: MS2 coat protein
# Assay: apparent KD of MS2 coat protein; designed switch direction (-1 OFF switch, 1 ON switch): -1; higher = weaker reporter binding
# Summary of the method: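 Stalled E. coli RNA polymerase transcribed designed RNA switches on Illumina chips, which were then titrated with SNAP-549-labelled MS2 coat protein, doubling from 0.7 or 1.5 nM to 3 µM. Steps lasted from 0.8–1.5 h at the lowest concentration to 10–20 min at the highest. The apparent KD is each design's median over clusters of curve-fitted normalised fluorescence.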
# [1] = Eterna round: R95, input ligand: FMN 200 uM
# [2] = Eterna round: R95, input ligand: microRNA oligo, concentration not stated
# [3] = Eterna round: R95, input ligand: none
# [4] = input ligand: microRNA oligo, concentration not stated
Sequence,apparent KD of MS2 coat protein (input ligand: FMN 200 uM) [µM],apparent KD of MS2 coat protein (input ligand: none) [µM],apparent KD of MS2 coat protein [1] [µM],apparent KD of MS2 coat protein [2] [µM],apparent KD of MS2 coat protein [3] [µM],apparent KD of MS2 coat protein [4] [µM]
"UGUAAGGCAGAGGAUAUGGUUACUAGACGAGUACCAGAAGGCUGCACAUGAGGAUCACCCAUGUGAAAUCCACU [Eternabot (L1) Solution 72] (Eterna round: R97, puzzle: Exclusion 6)",0.0807,0.0347,–,–,–,–
"UAAUUGUGAGGAUAUUCGUAUAACACGGAGACGUGUUGUACGGAGAAGGCACAUGAGGAUCACCCAUGUUCCUU [Mat - Exclusion 4 - JL Mod - D18] (Eterna round: R97, puzzle: Exclusion 4)",0.096,0.0152,–,–,–,–
"CAUGAUUUUCGGAAAAUGUACAUGAGGAUCACCCAUGUGACGAGUUACAUGAAAAACAAGCUUUUUGCUCGUCUUAU [Sensor v3 - Turn-off variant 1 - 11] (puzzle: Sensor v3, turn-off variant 1)",–,–,0.102,0.0248,0.188,–
"GAAGUUAGAGGAUAUACAUGAGGAUCACCCAUGUAUGAAGUUAACUUUGUAUAUAAAUGUAGAAGGCUAACUUC [-21.1, -19.6 kcal, 36% A] (Eterna round: R97, puzzle: Exclusion 3)",0.0416,0.0256,–,–,–,–
CUUGUUUAAGUGAGGAUAUACUGUUAGUAAUGAUUGUAGAAGGUACAUGAGGAUCACCCAUGUUUAUUUAUAUU [JR_BME4_Sub042] (puzzle: Brourd's mod of Exclusion 4),–,–,–,0.0164,–,–
"GAACUGAGGCAAAGCUUUAGUCGUACAUGAGGAUCACCCAUGUAGGAUAUGGUAGGCAAAGCAUACCAGAAGGACAGAGUGAUC [Mat - Exclusion NG 3 - Mod of JL - D61] (Eterna round: R96, puzzle: Exclusion NG 3)",0.877,0.476,–,–,–,0.313
"AAAUCACAUGAGGAUCACCCAUGUGAGGAUAUGAUACUAUGUACUUCGGUACAUAGUAUCAGAAGGCAUGUGGA [Ex1-3: 89] (Eterna round: R96, puzzle: Exclusion 1)",0.0432,0.0295,–,–,–,0.0226
"ACCCUGUGAGGAUAUUGUGAGCAGACACUUGAGUGCAAUCAUAAGAAGGUACAUGAGGAUCACCCAUGUGAAAC [Eternabot (L1) Solution 90] (Eterna round: R97, puzzle: Exclusion 4)",0.0304,0.0387,–,–,–,–
"GAUUACACAAGCUUUAGGGACAUGAGGAUCACCCAUGUUCGUCUUAUUGAUCUAGGUACGCUGACGUACCUAGAUCU [JL-sv1-2.31 Brourd mod] (puzzle: Sensor v3, turn-off variant 1)",–,–,0.0145,0.0849,0.0132,–
"UUAAAUCAUGUAGGAUAUGCGUGGCGAAGCUAUGCAGAAGGACAUGAGGAUCACCCAUGUUCUAGCGUCUGCGUACAGAUGCUA [Mat - Exclusion NG 1 - Mod of JL - D76] (Eterna round: R96, puzzle: Exclusion NG 1)",0.359,0.0383,–,–,–,0.0269
"AAGUAUCAUGUAGGAUAUGCUAACCGAACGUUAGCAGAAGGACAUGAGGAUCACCCAUGUUCUCAUCUGUAAGAACAGAUGUCU [Ex NG1 #6] (Eterna round: R96, puzzle: Exclusion NG 1)",0.0279,0.0155,–,–,–,0.0126
"CAGUACUGAGGAUAUACAUGAGGAUCACCCAUGUUGAGAUGAAAAGAAAGAGUUAAAUGUAGAAGGCGGUGCUG [JR_Ex3_Sub047] (Eterna round: R97, puzzle: Exclusion 3)",0.523,0.0711,–,–,–,–
CUUUUGUGAGGAUAUCAGUAGUAAAAAAAUAAAAUUACUUCUGAGAAGGCACAUGAGGAUCACCCAUGUUCCUC [salish99_ex4_r3_027] (puzzle: Exclusion 4),–,–,–,0.0374,–,–
"CCUGCGGACAAAGGAUAUUGCGGUGGCCGGCUCAGUAAAUCUAGCCAACAUGAGGAUCACCCAUGUAAGAAGGUUGCCGUUGGU [Qudice] (Eterna round: R96, puzzle: Exclusion NG 2)",–,–,–,–,–,0.017
CUGGUGUGAGGAUAUCAGGACACGUACGCGGGCAUGUCAAAUGAGAAGGCACAUGAGGAUCACCCAUGUGGGAC [Geve] (puzzle: Exclusion 4),–,–,–,0.026,–,–
"GCACGGAGUGUAGGAUAUCUGUGCGAUUAGCUCAGAGAAGGACACAUGAGGAUCACCCAUGUGUAACAACACAAUAAUCCGUGC [Eli exng1 - 072] (Eterna round: R96, puzzle: Exclusion NG 1)",0.0123,0.0142,–,–,–,0.0112
"UUAAUGUCAGGAUAUGCUUAAUAUAUUUUAUUAUAAUAUAUACAUGAGGAUCACCCAUGUAGAAGGGACAUUAU [LRO-Excl2-04-Fireball XL5] (Eterna round: R97, puzzle: Exclusion 2)",0.0264,0.0391,–,–,–,–

Sequence,apparent KD of MS2 coat protein (input ligand: FMN 200 uM) [µM],apparent KD of MS2 coat protein (input ligand: none) [µM],apparent KD of MS2 coat protein [1] [µM],apparent KD of MS2 coat protein [2] [µM],apparent KD of MS2 coat protein [3] [µM],apparent KD of MS2 coat protein [4] [µM]
"CUGAGGUAGCGGUCCUAUUACAUGAGGAUCACCCAUGUACCUUGCUUCGAGCUUUUAGCUCGUCUUAUGAUUCUCGG [Mat - Sensor v3 - turn-off var 1 - JL Mod - D38] (puzzle: Sensor v3, turn-off variant 1)",–,–,0.277,0.447,0.381,–
"UUCUUUAUACGAGGAUAUCAUACAUGAGGAUCACCCAUGUGGCUGGGUCUGUUUUUAUAUAUUAUUGAGAAGGCGUUUUUCUUU [JR_ExcNG2_Sub074] (Eterna round: R96, puzzle: Exclusion NG 2)",0.197,0.0867,–,–,–,0.0505
"GACGCUGACCGAGGAUAUACAAUAAAACAACAAACACCUCGUGUCAGAACAUGAGGAUCACCCAUGUAGAAGGCGGCAGGUCUA [Teateus] (Eterna round: R96, puzzle: Exclusion NG 2)",–,–,–,–,–,0.0316
CAGGACAGAGGAUAUACAUAGAUACAGAUUCAUGUAGAACUACAUGAGGAUCACCCAUGUAGAAGGCUGACCUG [Fiskers Ex 2 - 4] (puzzle: Exclusion 2),–,–,–,0.0278,–,–
AAAAGGCUAGGAUAUACAUGAGGAUCACCCAUGUGUACUGGACAUGCGGUAUGCGGAUGUAGAAGGAGUAUAAA [Esrere] (puzzle: Exclusion 3),–,–,–,0.0224,–,–
CAAAAGGUAGGAUAUACGAAAAAAAAGGGUAGAAAAAAAACACAUGAGGAUCACCCAUGUAGAAGGACCAAAAC [salish99_ex2_r3_042] (puzzle: Exclusion 2),–,–,0.0957,0.0226,0.0216,–
"AUAAUGUGAGGAUAUCAGUCGACUAGCCUCGGCUAGUCGACUGAGAAGGCACAUGAGGAUCACCCAUGUGUUUC [E4/15-A2] (Eterna round: R97, puzzle: Exclusion 4)",0.0439,0.0184,–,–,–,–
AAAAGAAGUGUUAGGAUAUGUGGAAGCAGAAAGACACAGAAGGAACAUGAGGAUCACCCAUGUGACCAAAGAAC [Maenonis] (puzzle: Brourd's mod of Exclusion 4),–,–,0.0271,0.0158,0.0153,–
UUUUAACAUGAGGAUCACCCAUGUAAGGAUAUGCUAUUUUUUUUUUUUUUUUUUUUUUGCAGAAGGUACAUUUU [My solution] (puzzle: Exclusion 1),–,–,0.0338,0.0213,0.0216,–
"UUAAUUUAAGGGAUAGAUCAUUACAUGAGGAUCACCCAUGUUGAGGAUAUCAGCUCGAUUAGAGCUGAGAAGGCAACAAUAGGG [ExNG3/14-A1] (Eterna round: R96, puzzle: Exclusion NG 3)",0.046,0.0638,–,–,–,0.0471
GAAAAGGUAGGAUAUCGAGACCAUAACAUGAGGAUCACCCAUGUGAUACCUACAGUGGUCCGAGAAGGACCAUAUA [Iserdianqu] (puzzle: Exclusion 5),–,–,0.0621,0.0204,0.0193,–
"ACUUACUGAGGAUAUACAUAGAUUUACAUGAGGAUCACCCAUGUUCCUCUUUGUAUAAAUGUAGAAGGCAGAAGAU [Mat - Exclusion 5 - JL Mod - D59] (Eterna round: R97, puzzle: Exclusion 5)",0.183,0.0965,–,–,–,–
GGUUGGCGAGGAUAUACAUGAGGAUCACCCAUGUGAGAGAAAAAAGUGAGGCAGAAAAGUAGAAGGCGCUGACG [salish99_ex3_r3_031] (puzzle: Exclusion 3),–,–,0.137,0.0298,0.0968,–
"CGCAACACAUGAGGAUCAAACAUGAGGAUCACCCAUGUAAAACAAGCUUUUUGCUCGUCUUAUAAAUAUGUGUUGCG [Electric Eye 1 - Jieux - Sensor, turn-off variant 1] (Eterna round: R97, puzzle: Sensor, turn-off variant 1)",0.0184,0.021,–,–,–,–
"CUAAAUCAUGUAGGAUAUGCGUGGCGAAGCUAUGCAGAAGGACAUGAGGAUCACCCAUGUCAUUCCGUCUGCGUACAGACGGGA [Mat - Exclusion NG 1 - Mod of JL - D48] (Eterna round: R96, puzzle: Exclusion NG 1)",0.133,0.0286,–,–,–,0.021
UGAGUGUGAGGAUAUGGUAAAGAUAAGAUGAUGAAAGAACUCCAGAAGGCACAUGAGGAUCACCCAUGUAGAUG [JL-ex4-2.12 Jieux mod] (puzzle: Exclusion 4),–,–,0.0811,0.0354,0.0357,–
"ACAUGAGGAUCACCCAUGUAAUGAUGGGUACUAUAUUAUUCGUAGGAUAUCGUUGUUAGUUUGUGCGAGAAGGACGUUUGCCUU [JR_ExcNG3_Sub056] (Eterna round: R96, puzzle: Exclusion NG 3)",0.994,0.698,–,–,–,0.667
